Results reported in US20160201045A1, “Endo-xylanase and Coding Gene and Use Thereof” (SHANGHAI INSTITUTES FOR BIOLOGICAL SCIENCES CHINESE ACADEMY …, priority 2013, published 2016).

Experiments:
Format in all cases: biochemical
[1] = Hydrolysis of Xyl7 on different substrates (DNS method); conditions: substrate 2% (w/w), pH7.0, 50, 10 minutes
Method: (§1) In a 100 μl reaction system, birch xylan was added to a final concentration of 1% (w/w), and Na2HPO4/NaH2PO4 buffer (pH7.0) was added to a final concentration of 100 mM. A suitable amount of enzyme solution diluted by the abovementioned buffer was added to the reaction system for reaction at 50[…] for 10 minutes. 100 μl DNS were added to stop the reaction. For the control, 100 μl DNS were firstly added to the above reaction system before adding the enzyme solution. The reaction mixtures were subjected to a boiled water bath for 5 minutes to develop color. Absorbance value at 540 nm was detected by a microplate reader. After subtracting the absorbance value of the control from that of the sample, the enzymatic activity unit (U) was calculated based on the standard curve.
Various substrates with a final concentration of 2% (w/w) were treated by a suitable amount of enzymes at pH7.0 and 50[…] for 10 minutes. Enzymatic activity was tested according to the above standard enzymatic activity detection steps. […] No detectable enzymatic activity was found for the other test substrates. This was consistent to the high substrate specificity of xylanase of the GH11 Family.

[2] = Thermal stability test of purified mutant proteins at 55° C. and 60° C.
Method: Enzymatic activity was tested according to the above standard enzymatic activity detection steps (enzymatic activity was tested after reacting at pH7.0, 50° C. for 10 minutes). The enzyme solution which was not subjected to heat treatment was used as a control. Its specific activity tested under pH 7.0, 50° C. was used as a reference value and its relative activity was defined as 100%. The relative activity of the treatment group was a ratio between the relative activity value obtained after storing at different temperatures for different times (treatment conditions) and the reference value. […] After storing at these temperatures for 45 min, the enzymatic activity decreased to be less than 50% of the maximum activity.
Transformants were picked up by sterile toothpick to a LB liquid culture containing antibiotic and IPTG (in a final concentration of 1 mM) contained within the wells of a 96-well plate and cultured overnight at 37° C. and 200 rpm. Thallus was collected by centrifugation. 100 ul buffers having the optimum reaction pH were added to re-suspend the thallus. […] Enzymatic activity was detected according to the DNS method. […] Then the enzymatic activity was detected. The residual enzymatic activity of the treatment group was calculated as a percentage of the enzymatic activity of the treatment group in relative to that of the control group. […]

[3] = Detection on pH tolerance; conditions: pH 6.5, 7.0 or 7.5, 50° C., 45 min; % of the highest activity
Method: as §1
The enzyme solution was kept in buffers of different pH values (6.5, 7.0 and 7.5) or at pH 7.0 with addition of 70 mM mercaptoethanol at 50° C. for different times (15 min, 30 min, 45 min, 60 min, 75 min). Enzymatic activity was tested according to the above standard enzymatic activity detection steps (enzymatic activity was tested after reacting at pH7.0, 50° C. for 10 minutes). The specific activity value of Xyl7 obtained after storing at pH7.0, 50° C. for 0 minute and reacting at 50° C. for 10 minutes was used as a reference value, and its relative activity was defined as 100%. […]

[4] = Screening of mutant clones for improved thermal stability (96-well, heat treatment, DNS); conditions: 52.5° C. water bath for two hours
Method: Transformants were picked up by sterile toothpick to a LB liquid culture containing antibiotic and IPTG (in a final concentration of 1 mM) contained within the wells of a 96-well plate and cultured overnight at 37° C. and 200 rpm. Thallus was collected by centrifugation. 100 ul buffers having the optimum reaction pH were added to re-suspend the thallus. Clone from each well was divided into a control group and a treatment group, with 50 ul for each well. The control group was stored at 4° C. The treatment group was treated in a water bath having a suitable temperature for 2 hours. After adding 2% xylan to each well, the mixture was allowed to react under 37° C. for 1 hour. Enzymatic activity was detected according to the DNS method. After treatment, the treatment group of the wild type clone retained an enzymatic activity which was about 10˜20% of its control group. […] The thermal stability of finally obtained mutants was tested according to the method described in Example 3. The overnight thallus was re-suspended and divided into two groups, which were the control and treatment groups, respectively. […] Then the enzymatic activity was detected. The residual enzymatic activity of the treatment group was calculated as a percentage of the enzymatic activity of the treatment group in relative to that of the control group. […]

B1: Xyl7: endo-1,4-β-xylanase of 505 amino acids, SEQ ID NO:2, from termite gut metagenome, expressed in E. coli with His tag (protein)
chain: MKKLIALSFIAAFFAPLFAQGPTWTTSTIQAYNGYDYELWNQNNAGTVSMKLTGDNGSGASAVGGTFTATWSNTQNVLFRSGKKWGSSSNQNHTQIGNMSINFAATWSSTDNVKMLGVYGWAYFTSANVPTKQENGTNASFSNQIEYYIIQDRGSYNPASGGTNAKKYGSATIDGIAYDFYVCDRINQPMLTGNGNFKQFFSVPQSASAHRTSGTISVSQHFNKWHELGMKMDGPLYEVAMKVESYTGSGSSNGSATVTKNLLTIGGTTPTPSSNSGGTTSSSSRASSSSRASSSSNAAVQATTCKTPLITYPTSTVPSDPYTACFKYTDDKCYVCKVENEGEFEGNMNTCGSGWVWDGTQIDNNLRDGYWYQEVPCPAGSSSSRSSSSSVAVSSSSRSSSSSVAASSSSRSSSSSASVSSSSEETPIRVLHTIPSKFRVRSLNNGALQIESNADVVLYLYDTKGKMAQKIEAPTGSSIVKLSVPAGIYIVRNVQTKEKLRVMVR
modifications: His tag; Intestinal tract metagenome of termite
[1]
  Specific Activity on barley dextran: 0 U/mg
  Specific Activity on carboxymethyl cellulose sodium: 0 U/mg
  Specific Activity on laminarin: 0 U/mg
  Specific Activity on locust bean gum: 0 U/mg
  Specific Activity on microcrystalline cellulose powder: 0 U/mg
[2]
  half life at 60° C.: less than 10 minutes
[3]
  retained activity after storing in buffer: ≥ 50%
[4]
  enzymatic activity of the treatment group as % of the control group: 10˜20%
